Values of other authors, collected in patent US20240209043A1, “NON-ANTIBODY BINDING PEPTIDES AND THEIR ANALOGS DUAL-TARGETING TO PD-1 AND PD-L1, AND USES THEREOF” (ORAL SUBSIDIARY SUN YAT-SEN UNIVERSITY HOSPITAL, priority 2021, published 2024).

Biological target: PD-1 (Homo sapiens, UniProt Q15116)
Conditions: background section; read-out: Kd-value of antibody drug targeting PD-1

Chain of PD-1 (Q15116 25-288): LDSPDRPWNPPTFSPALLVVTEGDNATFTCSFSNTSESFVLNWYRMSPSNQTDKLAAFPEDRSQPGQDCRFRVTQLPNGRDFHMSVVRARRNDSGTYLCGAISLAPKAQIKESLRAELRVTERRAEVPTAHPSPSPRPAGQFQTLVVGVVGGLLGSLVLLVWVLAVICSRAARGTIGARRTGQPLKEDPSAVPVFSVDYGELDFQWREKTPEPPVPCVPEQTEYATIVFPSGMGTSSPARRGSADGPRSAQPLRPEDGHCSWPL

- Kd: 3.31 nM
B1: Camrelizumab (antibody, chains of the INN, looked up, V domains shown)
VH: EVQLVESGGGLVQPGGSLRLSCAASGFTFSSYMMSWVRQAPGKGLEWVATISGGGANTYYPDSVKGRFTISRDNAKNSLYLQMNSLRAEDTAVYYCARQLYYFDYWGQGTTVTVSS
VL: DIQMTQSPSSLSASVGDRVTITCLASQTIGTWLTWYQQKPGKAPKLLIYTATSLADGVPSRFSGSGSGTDFTLTISSLQPEDFATYYCQQVYSIPWTFGGGTKVEIK
notes: marketed IgG4 antibody drug targeting PD-1
